Experimental data as given in US8301398 (WALTER AND ELIZA HALL INSTITUTE OF MEDICAL RESEARCH, dated 2012).

B1: IR485 (residues 1-485 of the insulin receptor) with enterokinase cleavage site and c-myc epitope tag (receptor)
chain: HLYPGEVCPGMDIRNNLTRLHELENCSVIEGHLQILLMFKTRPEDFRDLSFPKLIMITDYLLLFRVYGLESLKDLFPNLTVIRGSRLFFNYALVIFEMVHLKELGLYNLMNITRGSVRIEKNNELCYLATIDWSRILDSVEDNHIVLNKDDNEECGDICPGTAKGKTNCPATVINGQFVERCWTHSHCQKVCPTICKSHGCTAEGLCCHSECLGNCSQPDDPTKCVACRNFYLDGRCVETCPPPYYHFQDWRCVNFSFCQDLHHKCKNSRRQGCHQYVIHNNKCIPECPSGYTMNSSNLLCTPCLGPCPKVCHLLEGEKTIDSVTSAQELRGCTVINGSLIINIRGGNNLAAELEANLGLIEEISGYLKIRRSYALVSLSFFRKLRLIRGETLEIGNYSFYALDNQNLRQLWDWSKHNLTTTQGKLFFHYNPKLCLSEIHKMEEVSGTKGRQERNDIALKTNGDKASCENELLKFSYIRTSFDKISDDDDKEQKLISEEDLN
notes: also called IR485/myc; soluble IR485

How the values were obtained:
[1] = molecular target: B1; assay: sandwich ELISA, biotinylated 83-7 as developing antibody
[2] = molecular target: the molecule itself; assay: gel filtration on Superdex 200 HR; monomeric on non-reduced SDS-PAGE
Description: Further purification was effected by gel filtration on Superdex 200 HR (Pharmacia, Sweden) in TBSA, monitored at 280 nm.

| Binder | binding result [1] | binding result [2] |
| --- | --- | --- |
| anti-insulin receptor monoclonal antibody 83-7 (whole antibody) (antibody, V domains shown, also called Mab 83-7) VH: QVQLKESGPGLVAPSQSLSITCTVSGFPLTAYGVNWVRQPPGKGLEWLGMIWGDGNTDYNSALKSRLSISKDNSKSQVFLKMNSLQTDDTARYYCARDPYGSKPMDYWGQGTSVTVSS VL: DIVMSQSPSSLVVSVGEKVTMSCKSSQSLLYSSNQKNFLAWYQQKPGQSPKLLIYWASTRESGVPDRFTGSGSGTDFTLTISSVKAEDLAVYYCQQYFRYRTFGGGTKLEIKR | binds |  |
| B1 |  | binds |
